EP3277718B1 (Baxalta GmbH, dated 2021)

Assays:
[1] = molecular target: T1, human MIF (macrophage migration inhibitory factor), recombinant (human, UniProt P14174 2-115); assay: SPR, Biacore 3000, RAM9 amine-coupled to CM5 chip, MIF injected at 40-480 nM, 1:1 Langmuir fit with mass transfer
T1 construct: The background says that MIF crystallises as a trimer; In the potency rows the target is the endogenous MIF of human U937 cells; also called GIF

[2] = molecular target: T1, human MIF (macrophage migration …); assay: cell-based or functional assay

T1 sequence (P14174 2-115 limits assumed): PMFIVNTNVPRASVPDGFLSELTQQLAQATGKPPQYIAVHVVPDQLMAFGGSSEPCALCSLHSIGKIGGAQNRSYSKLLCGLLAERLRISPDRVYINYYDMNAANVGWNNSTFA

B1: RAM9 (antibody, human IgG1, kappa, V domains shown)
VH: EVQLLESGGGLVQPGGSLRLSCAASGFTFSIYSMNWVRQAPGKGLEWVSSIGSSGGTTYYADSVKGRFTISRDNSKNTLYLQMNSLRAEDTAVYYCAGSQWLYGMDVWGQGTTVTVSS
VL: DIQMTQSPSSLSASVGDRVTITCRSSQRIMTYLNWYQQKPGKAPKLLIFVASHSQSGVPSRFRGSGSETDFTLTISGLQPEDSATYYCQQSFWTPLTFGGGTKVEIKR
notes: also deposited as plasmids DSM 25860 (hc) and DSM 25859 (lc); also called anti-MIF antibody RAM9; anti-oxMIF antibody
Kd [1]: 1.7 nM
Potency (IC 50); inhibition of random migration of human U937 cells, Transwell chemokinesis assay [2]: 1 nM
